Measurements reported in publication doi:10.1101/737593 (bioRxiv, 2019).

B1: hexa-histidine affinity tagged (His6)-MrpC (natural protein, Myxococcus xanthus, UniProt Q9FDC4 1-248, looked up)
chain: MHGFNRPLGPIGSNVVAPLQTTSSGMMVTANKLVPGQEAIDFKGYFKVESFPHNSTIYRPGDNTDRVYLLKSGRVRLMRIGKNSTRSVVSILRPGDLFGELFRPEGTPIEEMAIAAGEAEVWSIEGRDFRAQLEARPALAVDVVRAYAERVRALRKRVLGLTFKEVPARLADTLLTLVEAHGERCPHGGETDLRGITQQDLADLVGASRSFVSTLINEMKREGVLGNVGRILCVRDQKALRKIAGKEK
B2: His6-MrpC_(AAAA) (natural protein, Myxococcus xanthus, UniProt Q9FDC4 1-248, looked up)
chain: MHGFNRPLGPIGSNVVAPLQAAAAGMMVTANKLVPGQEAIDFKGYFKVESFPHNSTIYRPGDNTDRVYLLKSGRVRLMRIGKNSTRSVVSILRPGDLFGELFRPEGTPIEEMAIAAGEAEVWSIEGRDFRAQLEARPALAVDVVRAYAERVRALRKRVLGLTFKEVPARLADTLLTLVEAHGERCPHGGETDLRGITQQDLADLVGASRSFVSTLINEMKREGVLGNVGRILCVRDQKALRKIAGKEK
B3: His6-MrpC lacking the 25 amino terminal residues (His6-MrpC_(ΔN25)) (domain or fragment, Myxococcus xanthus, UniProt Q9FDC4 26-248, looked up)
chain: MMVTANKLVPGQEAIDFKGYFKVESFPHNSTIYRPGDNTDRVYLLKSGRVRLMRIGKNSTRSVVSILRPGDLFGELFRPEGTPIEEMAIAAGEAEVWSIEGRDFRAQLEARPALAVDVVRAYAERVRALRKRVLGLTFKEVPARLADTLLTLVEAHGERCPHGGETDLRGITQQDLADLVGASRSFVSTLINEMKREGVLGNVGRILCVRDQKALRKIAGKEK

Molecular target: the molecule itself
Assay: SEC

Stoichiometry N, 2:
B1
B2
B3
